Reference: patent US11491206 (DUKE UNIVERSITY, dated 2022)

Target: T1, death receptor 5 (DR5) (UniProt O14763 56-182, limits assumed)
T1 construct: also called TRAIL Receptor 2; TRAILR2
Test: not stated (told in the legend of the schematic FIG. 1A)

T1 sequence (O14763 56-182 limits assumed): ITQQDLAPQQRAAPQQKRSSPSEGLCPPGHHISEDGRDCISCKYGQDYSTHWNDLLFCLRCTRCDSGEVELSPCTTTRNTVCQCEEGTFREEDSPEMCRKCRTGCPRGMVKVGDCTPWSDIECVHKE

B1: DRA monomer (single Tn3 type III fibronectin domain of tenascin engineered to bind death receptor 5) (designed binder)
chain: GAIEVKDVTDTTALITWAKPWVDPPPLWGCELTYGIKDVPGDRTTIDLQQKHTAYSIGNLKPDTEYEVSLICFDPYGMRSKPAKETFTT
notes: also called Tn3 monomer; monomer of the Tn3 domain
  Kd: 43 nM
